From patent US20240417436A1 come the findings set out here.

Bridges are numbered along the chain shown (N, C = ends). Primed or numbered codes have the meaning given here. [ ]: non-standard residue; d: D form. Yn3(5) = tyrosine residue modified with an azide-capped PEG9 group (O-(PEG9-azido)-tyrosine); Ygp(5) = O-(8x polyethylene glycol-amino)-tyrosine (Tyr-PEG8-amine); Ygp = O-(8x polyethylene glycol-amino)-tyrosine; Yn3 = O-(9x polyethylene glycol-azido)-tyrosine; PEG9′ = polyethylene glycol spacer of 9 units; 4x polyethylene glycol = not defined here; hSer = N[C@@H](CCO)C(=O)O; Nle = CCCC[C@H](N)C(=O)O

B1: CMP-154 (ligand)
chain: PLGLAGAPTSSSTKKTQLQLEHLLLDLQ[Nle]ILNGIENYKNPKLTR[Nle]L[hSer][Yn3]KF[Ygp][Nle]PKKATELKHLQCLEEELKPLEEVL[hSer]LAQSKNFHLRPRDLISNINVIVLELKGSETTF[hSer]CEYADETATIVEFLNRWITFSQSIISTLT
modifications: linker N-35 via 9x polyethylene glycol
B2: CMP-320 (ligand)
chain: SGRVAPQPLVDAPTSSSTKKTQLQLEHLLLDLQEILNGINNYKNPKLTR[Nle]L[hSer][Yn3(5)]KF[Ygp(5)][Nle]PKKATELKHLQCLEEELKPLEEVL[hSer]LAQSKNFHLRPRDLISNINVIVLELKGSETTF[hSer]CEYADETATIVEFLNRWITFSQSIISTLT
modifications: lactam N-34
B3: CMP-303 (ligand)
chain: PLGLAGAPTSSSTKKTQLQLEHLLLDLQEILNGINNYKNPKLTR[Nle]L[hSer][Yn3]KF[Ygp][Nle]PKKATELKHLQCLEEELKPLEEVL[hSer]LAQSKNFHLRPRDLISNINVIVLELKGSETTF[hSer]CEYADETATIVEFLNRWITFSQSIISTLT
modifications: linker (positions not given here) via 4x polyethylene glycol; not fully specified (bridges); reading uncertain; also: ring may run through the N-terminus of residue 1, not given here
B4: CMP-321, Matriptase cleaved molecule (ligand)
chain: SGRVQPLVDAPTSSSTKKTQLQLEHLLLDLQEILNGINNYKNPKLTR[Nle]L[hSer][Yn3(5)]KF[Ygp(5)][Nle]PKKATELKHLQCLEEELKPLEEVL[hSer]LAQSKNFHLRPRDLISNINVIVLELKGSETTF[hSer]CEYADETATIVEFLNRWITFSQSIISTLT
modifications: lactam N-32; also: treated with matriptase (cleavage site not given here)
B5: CMP-321, MMP2 cleaved molecule (ligand)
chain: SGRVQPLVDAPTSSSTKKTQLQLEHLLLDLQEILNGINNYKNPKLTR[Nle]L[hSer][Yn3(5)]KF[Ygp(5)][Nle]PKKATELKHLQCLEEELKPLEEVL[hSer]LAQSKNFHLRPRDLISNINVIVLELKGSETTF[hSer]CEYADETATIVEFLNRWITFSQSIISTLT
modifications: lactam N-32; also: treated with MMP2 (cleavage site not given here)
B6: CMP-318, MMP2 cleaved molecule (ligand)
chain: SGRVANLVGAPTSSSTKKTQLQLEHLLLDLQEILNGINNYKNPKLTR[Nle]L[hSer][Yn3]KF[Ygp][Nle]PKKATELKHLQCLEEELKPLEEVL[hSer]LAQSKNFHLRPRDLISNINVIVLELKGSETTF[hSer]CEYADETATIVEFLNRWITFSQSIISTLT
modifications: not fully specified (bridges)
B7: CMP-320, MMP2 cleaved molecule (ligand)
chain: SGRVAPQPLVDAPTSSSTKKTQLQLEHLLLDLQEILNGINNYKNPKLTR[Nle]L[hSer][Yn3(5)]KF[Ygp(5)][Nle]PKKATELKHLQCLEEELKPLEEVL[hSer]LAQSKNFHLRPRDLISNINVIVLELKGSETTF[hSer]CEYADETATIVEFLNRWITFSQSIISTLT
modifications: lactam N-34; also: treated with MMP2 (cleavage site not given here)
B8: CMP-321 (ligand)
chain: SGRVQPLVDAPTSSSTKKTQLQLEHLLLDLQEILNGINNYKNPKLTR[Nle]L[hSer][Yn3(5)]KF[Ygp(5)][Nle]PKKATELKHLQCLEEELKPLEEVL[hSer]LAQSKNFHLRPRDLISNINVIVLELKGSETTF[hSer]CEYADETATIVEFLNRWITFSQSIISTLT
modifications: lactam N-32
B9: CMP-320, Matriptase cleaved molecule (ligand)
chain: SGRVAPQPLVDAPTSSSTKKTQLQLEHLLLDLQEILNGINNYKNPKLTR[Nle]L[hSer][Yn3(5)]KF[Ygp(5)][Nle]PKKATELKHLQCLEEELKPLEEVL[hSer]LAQSKNFHLRPRDLISNINVIVLELKGSETTF[hSer]CEYADETATIVEFLNRWITFSQSIISTLT
modifications: lactam N-34; also: treated with matriptase (cleavage site not given here)
B10: CMP-304 (ligand)
chain: PLGLAGAPTSSSTKKTQLQLEHLLLDLQEILNGINNYKNPKLTR[Nle]L[hSer][Yn3]KF[Ygp][Nle]PKKATELKHLQCLEEELKPLEEVL[hSer]LAQSKNFHLRPRDLISNINVIVLELKGSETTF[hSer]CEYADETATIVEFLNRWITFSQSIISTLT
modifications: bridge N-29 via PEG9′
B11: CMP-319, Matriptase cleaved molecule (ligand)
chain: RGRRVANLVGAPTSSSTKKTQLQLEHLLLDLQEILNGINNYKNPKLTR[Nle]L[hSer][Yn3(5)]KF[Ygp(5)][Nle]PKKATELKHLQCLEEELKPLEEVL[hSer]LAQSKNFHLRPRDLISNINVIVLELKGSETTF[hSer]CEYADETATIVEFLNRWITFSQSIISTLT
modifications: lactam N-33; also: treated with matriptase (cleavage site not given here)
B12: CMP-159 (ligand)
chain: PLGLAGAPTSSSTKKTQLQLEHLLLDLE[Nle]ILNGINNYKNPKLTR[Nle]L[hSer][Yn3]KF[Ygp][Nle]PKKATELKHLQCLEEELKPLEEVL[hSer]LAQSKNFHLRPRDLISNINVIVLELKGSETTF[hSer]CEYADETATIVEFLNRWITFSQSIISTLT
modifications: linker N-28 via 4x polyethylene glycol; reading uncertain
B13: CMP-319 (ligand)
chain: RGRRVANLVGAPTSSSTKKTQLQLEHLLLDLQEILNGINNYKNPKLTR[Nle]L[hSer][Yn3(5)]KF[Ygp(5)][Nle]PKKATELKHLQCLEEELKPLEEVL[hSer]LAQSKNFHLRPRDLISNINVIVLELKGSETTF[hSer]CEYADETATIVEFLNRWITFSQSIISTLT
modifications: lactam N-33
B14: CMP-161 (ligand)
chain: PLGLAGAPTSSSTKKTQLQLEHLLLDLQ[Nle]ILEGINNYKNPKLTR[Nle]L[hSer][Yn3]KF[Ygp][Nle]PKKATELKHLQCLEEELKPLEEVL[hSer]LAQSKNFHLRPRDLISNINVIVLELKGSETTF[hSer]CEYADETATIVEFLNRWITFSQSIISTLT
modifications: bridge N-32; not fully specified (bridges)
B15: CMP-152 (ligand)
chain: PLGLAGAPTSSSTKKTQLQLEHLLLDLQ[Nle]ILNGINNYKNPKLTR[Nle]L[hSer][Yn3]KF[Ygp][Nle]PKKATELKHLQCLEEELKPLEEVL[hSer]LAQSKNFHLRPRDLISNINVIVLELKGSETTF[hSer]CEYADETATIVEFLNRWITFSQSIISTLT
modifications: linker N-38 via 1,5‑pentanedioic acid‑9x polyethylene glycol linker
B16: CMP-318, Matriptase cleaved molecule (ligand)
chain: SGRVANLVGAPTSSSTKKTQLQLEHLLLDLQEILNGINNYKNPKLTR[Nle]L[hSer][Yn3(5)]KF[Ygp(5)][Nle]PKKATELKHLQCLEEELKPLEEVL[hSer]LAQSKNFHLRPRDLISNINVIVLELKGSETTF[hSer]CEYADETATIVEFLNRWITFSQSIISTLT
modifications: lactam N-32; also: treated with matriptase, cleavage site not given here
B17: CMP-302 (ligand)
chain: GPLGLAGAPTSSSTKKTQLQLEHLLLDLQEILNGINNYKNPKLTR[Nle]L[hSer][Yn3]KF[Ygp][Nle]PKKATELKHLQCLEEELKPLEEVL[hSer]LAQSKNFHLRPRDLISNINVIVLELKGSETTF[hSer]CEYADETATIVEFLNRWITFSQSIISTLT
modifications: lactam N-30
B18: CMP-318 (ligand)
chain: SGRVANLVGAPTSSSTKKTQLQLEHLLLDLQEILNGINNYKNPKLTR[Nle]L[hSer][Yn3]KF[Ygp][Nle]PKKATELKHLQCLEEELKPLEEVL[hSer]LAQSKNFHLRPRDLISNINVIVLELKGSETTF[hSer]CEYADETATIVEFLNRWITFSQSIISTLT
modifications: lactam N-32
B19: CMP-319, MMP2 cleaved molecule (ligand)
chain: RGRRVANLVGAPTSSSTKKTQLQLEHLLLDLQEILNGINNYKNPKLTR[Nle]L[hSer][Yn3(5)]KF[Ygp(5)][Nle]PKKATELKHLQCLEEELKPLEEVL[hSer]LAQSKNFHLRPRDLISNINVIVLELKGSETTF[hSer]CEYADETATIVEFLNRWITFSQSIISTLT
modifications: lactam N-33; also: treated with MMP2 (cleavage site not given here)

The target of one experiment is IL-2 receptor βγ complex (CD122/CD132) on HEK-Blue IL-2Rβγ reporter cells (UniProt P14784). Kind of experiment: cell-based or functional assay.
IL-2 receptor βγ complex (CD122/CD132) on HEK-Blue IL-2Rβγ reporter cells, sequence (P14784 27-551 limits assumed, chain 1 of 2): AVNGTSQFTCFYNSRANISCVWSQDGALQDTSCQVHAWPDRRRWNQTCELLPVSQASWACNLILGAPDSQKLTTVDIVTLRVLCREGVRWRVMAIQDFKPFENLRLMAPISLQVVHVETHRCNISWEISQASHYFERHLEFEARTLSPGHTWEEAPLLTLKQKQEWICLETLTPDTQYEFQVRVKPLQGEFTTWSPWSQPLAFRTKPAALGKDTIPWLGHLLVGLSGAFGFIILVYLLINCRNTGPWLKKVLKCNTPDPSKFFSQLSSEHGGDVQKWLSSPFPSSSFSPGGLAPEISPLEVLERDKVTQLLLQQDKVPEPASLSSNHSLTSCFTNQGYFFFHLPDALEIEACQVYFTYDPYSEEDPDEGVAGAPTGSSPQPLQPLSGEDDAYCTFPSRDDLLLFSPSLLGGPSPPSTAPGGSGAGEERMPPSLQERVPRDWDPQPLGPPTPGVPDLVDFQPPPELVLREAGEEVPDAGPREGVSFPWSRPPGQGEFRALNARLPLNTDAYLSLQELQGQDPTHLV
IL-2 receptor βγ complex (CD122/CD132) on HEK-Blue IL-2Rβγ reporter cells, sequence (P31785 23-369 limits assumed, chain 2 of 2, further chain): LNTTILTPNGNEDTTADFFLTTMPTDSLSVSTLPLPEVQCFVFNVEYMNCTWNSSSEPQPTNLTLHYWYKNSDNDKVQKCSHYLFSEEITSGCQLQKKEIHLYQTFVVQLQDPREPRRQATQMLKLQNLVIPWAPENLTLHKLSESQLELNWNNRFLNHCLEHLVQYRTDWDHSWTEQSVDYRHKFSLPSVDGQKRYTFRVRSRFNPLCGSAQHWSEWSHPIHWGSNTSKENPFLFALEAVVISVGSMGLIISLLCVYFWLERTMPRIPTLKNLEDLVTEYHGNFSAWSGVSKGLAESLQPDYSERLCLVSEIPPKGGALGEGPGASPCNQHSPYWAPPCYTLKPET
Regarding B1, the Average EC50, HEK-Blue IL-2R (CD122+, CD132+) reporter assay came out at 0.106 nM.

B2 returned an Average EC50, HEK-Blue IL-2R (CD122+, CD132+) reporter assay of 0.775 nM.

B3: the Average EC50, HEK-Blue IL-2R (CD122+, CD132+) reporter assay turned out to be 0.521 nM.

In turn, B4 returned an Average EC50, HEK-Blue IL-2R (CD122+, CD132+) reporter assay of 4.22 nM.

Turning to B5, the Average EC50, HEK-Blue IL-2R (CD122+, CD132+) reporter assay was found to be 0.181 nM.

The molecule B6 registered an Average EC50, HEK-Blue IL-2R (CD122+, CD132+) reporter assay of 0.0259 nM.

Molecule B7 came in with an Average EC50, HEK-Blue IL-2R (CD122+, CD132+) reporter assay of 0.0392 nM.

B8 yielded an Average EC50, HEK-Blue IL-2R (CD122+, CD132+) reporter assay of 4.2 nM.

As to B9, the Average EC50, HEK-Blue IL-2R (CD122+, CD132+) reporter assay was 10.8 nM.

B10 returned an Average EC50, HEK-Blue IL-2R (CD122+, CD132+) reporter assay of 0.34 nM.

B11 displayed an Average EC50, HEK-Blue IL-2R (CD122+, CD132+) reporter assay of 0.0507 nM.

Turning to B12, the Average EC50, HEK-Blue IL-2R (CD122+, CD132+) reporter assay stood at 0.192 nM.

B13 came in with an Average EC50, HEK-Blue IL-2R (CD122+, CD132+) reporter assay of 1.05 nM.

B14 registered an Average EC50, HEK-Blue IL-2R (CD122+, CD132+) reporter assay of 0.168 nM.

B15 had an Average EC50, HEK-Blue IL-2R (CD122+, CD132+) reporter assay of 0.0597 nM.

Molecule B16 registered an Average EC50, HEK-Blue IL-2R (CD122+, CD132+) reporter assay of 2.47 nM.

In turn, B17 yielded an Average EC50, HEK-Blue IL-2R (CD122+, CD132+) reporter assay of 0.436 nM.

As to B18, the Average EC50, HEK-Blue IL-2R (CD122+, CD132+) reporter assay was determined as 3.37 nM.

Molecule B19 displayed an Average EC50, HEK-Blue IL-2R (CD122+, CD132+) reporter assay of 0.049 nM.

The target of a further experiment is IL-2 receptor βγ complex on human cells (pan T cells, PBMC NK cells, NK92 PD1+ cells) (human) (UniProt P14784). The experiment in a line: cell-based or functional assay.
IL-2 receptor βγ complex on human cells (pan T cells, PBMC NK cells, NK92 PD1+ cells) (human), sequence (P14784 27-551, chain 1 of 2): as the sequence (P14784 27-551 limits assumed, chain 1 of 2) above
IL-2 receptor βγ complex on human cells (pan T cells, PBMC NK cells, NK92 PD1+ cells) (human), sequence (P31785 23-369, chain 2 of 2, further chain): as the sequence (P31785 23-369 limits assumed, chain 2 of 2, further chain) above
As to B2, the Average EC50, pSTAT5 assay in NK cells was 13.2 nM.

The molecule B4 registered an Average EC50, pSTAT5 assay in NK cells of 65.2 nM.

On to B5, for which the Average EC50, pSTAT5 assay in NK cells turned out to be 2.94 nM.

Regarding B6, the Average EC50, pSTAT5 assay in NK cells stood at 0.388 nM.

With B7, the Average EC50, pSTAT5 assay in NK cells is 0.571 nM.

Consider B8, for which the Average EC50, pSTAT5 assay in NK cells came out at 55.1 nM.

With B9, the Average EC50, pSTAT5 assay in NK cells stood at 15.7 nM.

For the molecule B11, the Average EC50, pSTAT5 assay in NK cells is 0.804 nM.

B13 yielded an Average EC50, pSTAT5 assay in NK cells of 7.72 nM.

In the case of B16, the Average EC50, pSTAT5 assay in NK cells worked out at 33.7 nM.

On to B18, for which the Average EC50, pSTAT5 assay in NK cells was found to be 37.4 nM.

In the case of B19, the Average EC50, pSTAT5 assay in NK cells came to 0.713 nM.
